Drawing on patent US20060287320A1, “Preparation of thioarabinofuranosyl compounds and use thereof” (Southern Research Institute, priority 1998, published 2006), this text covers Km and Vmax for two proteins.

Test in all cases: purified protein, by the assay type
Substrate in series [1]: Nc1ccn([C@H]2C[C@H](O)[C@@H](CO)O2)c(=O)n1
To be noted: other: dCyd deaminase activity from human placenta, pH 7.4, mean and standard deviation from 3 experiments.
Experimental: (§1) Reactions were carried out in solutions containing 20 mM potassium phosphate (pH 7.4), 100 mM KCl, various concentrations of radiolabeled nucleoside, and enzyme. The reactions were stopped with acid, the substrate was separated from the product by paper chromatography, and the radioactivity in each were determined. The kinetic constants were determined from linear double-reciprocal plots of 1/velocity versus 1/concentration of the substrate. The best line was determined by linear regression from at least 5 datum points, and the Km and Vmax were determined from the x and y intercepts. The data presented are the mean and standard deviation from 3 separate experiments.

Substrate in series [2]: Nc1ccn([C@@H]2S[C@H](CO)[C@@H](O)[C@@H]2O)c(=O)n1
Substrate in series [3]: Nc1ccn([C@H]2C[C@H](O)[C@@H](CO)O2)c(=S)n1
Experimental: as §1
The conditions noted are these: other: dCyd deaminase activity from human placenta, pH 7.4, mean and standard deviation from 3 experiments.

The mark [4] stands for this setting: other: dCyd deaminase activity from human placenta, pH 7.4, mean and standard deviation from 3 experiments.

B1: dCyd Deaminase Activity Isolated from Human Placenta (Homo sapiens) (protein)
chain: MAQKRPACTLKPECVQQLLVCSQEAKKSAYCPYSHFPVGAALLTQEGRIFKGCNIENACYPLGICAERTAIQKAVSEGYKDFRAIAIASDMQDDFISPCGACRQVMREFGTNWPVYMTKPDGTYIVMTVQELLPSSFGPEDLQKTQ
On to B1, for which the Michaelis-Menten constant (Km) in series [1] turned out to be 23 ± 2.7 µM; in series [2] (setting [4]), 2944 ± 1023 µM; in series [3], 111 ± 77 µM. Also, the Vmax in series [1] amounted to 1.3e-05 µmol/min/mg; in series [2] (setting [4]), 2.1e-05 µmol/min/mg; in series [3], 3.7e-05 µmol/min/mg.

B2: cytidine deaminase (Homo sapiens) (protein)
chain: B1 chain
For B2, the Km in series [2] (other: cytidine deaminase, radioactive substrates) was determined as 2570 µM.

In general, Km refers to the substrate concentration at which the rate is half of its maximum. By Vmax is commonly meant the top rate of the reaction or transport when substrate is in excess.
